The supplement of paper PMC10201428
± gives the standard deviation of the averaged measurements.

Key:
[1] = test system: VchCAST RNA-guided transposition machinery (E. coli BL21(DE3) host, lacZ target); assay: relative integration efficiency (T-LR orientation) vs wild-type transposon end (log2 (normalized fold change)); transposon end mutated: right end (5 bp flank + 75 bp right end); higher = more efficient transposition
Method in brief: (§1)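 Pools of 1549 left-end or 1849 right-end barcoded transposon variants were cloned into a pUC57 mini-transposon donor and co-transformed into E. coli BL21(DE3) with a T7-driven effector plasmid carrying a CRISPR array, tniQ-cas8-cas7-cas6 and tnsA-tnsB-tnsC. Plating used 0.1 mM IPTG at 37°C for 18 h, and input plasmids and genomic integration junctions were PCR-amplified for Illumina sequencing, with two biological output replicates and four reference barcodes. Relative integration efficiency is the log-transformed fold change of output over input barcode abundance, normalised to the reference barcodes.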

[2] = test system: VchCAST RNA-guided transposition machinery (E. coli BL21(DE3) host, lacZ target); assay: relative integration efficiency (T-RL orientation) vs wild-type transposon end (log2 (normalized fold change)); transposon end mutated: right end (5 bp flank + 75 bp right end); higher = more efficient transposition
Method in brief: as §1

Sequence | relative integration efficiency (log2) [1] | relative integration efficiency (log2) [2]
ACATTTGTTGATACAACCATAAAATGATAATTACACCCATAAATTGATAATTATCACACCCATAAATTGATATTGCCTCTGATAACTTCGTATAATGTATGCTATACGAAGTTATTCGCACCGACAC | 0.719 ± 0.031 | -0.484 ± 0.19
ACATTTGTTGATACAACCATAAAATGATAATTACACCCATAAATTGATAATTATCACACCCATAAATTGATATTGCCTCTGATAACTTCGTATAGCATACATTATACGAAGTTATTCGCACCGACAC | 2.48 ± 0.26 | -3.13 ± 0.076
ACATTTGTTGATACAACCATAAAATGATAATTACACCCATAAATTGATAATTATCACACCCATAAATTGATATTGCCTCTGATAACTTCGTATAGGATACTTTATACGAAGTTATTCGCACCGACAC | 1.19 ± 0.28 | -0.663 ± 0.27
ACATTTGTTGATACAACCATAAAATGATAATTACACCCATAAATTGATAATTATCACACCCATAAATTGATATTGCCTCTGATAACTTCGTATAGTATACATTATACGAAGTTATTCGCACCGACAC | 2.27 ± 0.2 | -2.13 ± 0.21
ACATTTGTTGATACAACCATAAAATGATAATTACACCCATAAATTGATAATTATCACACCCATAAATTGATATTGCCTCTGATAACTTCGTATAGTATACCTTATACGAAGTTATTCGCACCGACAC | 1.034 ± 0.0024 | -0.958 ± 0.26
ACATTTGTTGATACAACCATAAAATGATAATTACACCCATAAATTGATAATTATCACACCCATAAATTGATATTGCCTCTGATAACTTGGTATAGCATACATTATACGAACGGTATCGCACCGACAC | 0.663 ± 0.24 | -0.811 ± 0.36
ACATTTGTTGATACAACCATAAAATGATAATTACACCCATAAATTGATAATTATCACACCCATAAATTGATATTGCCTCTGATAGTACTGCGCGCCTGAATTCATCGTTAAATCGTCGCACCGACAC | 0.249 ± 0.17 | 0.0579 ± 0.2
ACATTTGTTGATACAACCATAAAATGATAATTACACCCATAAATTGATAATTATCACACCCATAAATTGATATTGCCTCTGATCAAAATGTGAGCGAGTAACAACCTAGTCAGACCAGCACCGACAC | -0.0747 ± 0.17 | -0.102 ± 0.08
ACATTTGTTGATACAACCATAAAATGATAATTACACCCATAAATTGATAATTATCACACCCATAAATTGATATTGCCTCTGATCAAATTGTGAGCGGATAACAATTTAGTCAGACCAGCACCGACAC | 0.00708 ± 0.62 | -0.232 ± 0.12
ACATTTGTTGATACAACCATAAAATGATAATTACACCCATAAATTGATAATTATCACACCCATAAATTGATATTGCCTCTGATCAACCATAAAATGATAATTACATAGTCAGACCAAGCACCGACAC | 0.401 ± 0.26 | 0.875 ± 0.21
ACATTTGTTGATACAACCATAAAATGATAATTACACCCATAAATTGATAATTATCACACCCATAAATTGATATTGCCTCTGATCAATATGTAACCAAAAGTAAAATAGTCAGACCAAGCACCGACAC | 0.023 ± 0.042 | -0.295 ± 0.29
ACATTTGTTGATACAACCATAAAATGATAATTACACCCATAAATTGATAATTATCACACCCATAAATTGATATTGCCTCTGATCACAACCATAAAATGATAATTATAGTCAGACCAAGCACCGACAC | -0.402 ± 0.11 | -0.0149 ± 0.23
ACATTTGTTGATACAACCATAAAATGATAATTACACCCATAAATTGATAATTATCACACCCATAAATTGATATTGCCTCTGATCAGGAATTGTGAGCGGATAACAATTTAGTCAGACGCACCGACAC | 0.397 ± 0.067 | 0.138 ± 0.16
ACATTTGTTGATACAACCATAAAATGATAATTACACCCATAAATTGATAATTATCACACCCATAAATTGATATTGCCTCTGATCAGGCAGTGAGCGCAACGCAATTTAGTCAGACCAGCACCGACAC | -0.287 ± 0.16 | -0.283 ± 0.16
ACATTTGTTGATACAACCATAAAATGATAATTACACCCATAAATTGATAATTATCACACCCATAAATTGATATTGCCTCTGATCATAAATATATAAATTAATTATTAAATTAGTCAGGCACCGACAC | 1.54 ± 0.18 | 1.34 ± 0.21
ACATTTGTTGATACAACCATAAAATGATAATTACACCCATAAATTGATAATTATCACACCCATAAATTGATATTGCCTCTGATCATAATTGTTATCCGCTCACAATTCCAGTCAGACGCACCGACAC | 0.885 ± 0.33 | -0.659 ± 0.41
